Results: paper PMC8080076

Molecular target: DEC205 (human (endogenous in blood DCs)) (UniProt O60449)
Assay: flow cytometry on cells

UniProt O60449, sequence (O60449 28-1722): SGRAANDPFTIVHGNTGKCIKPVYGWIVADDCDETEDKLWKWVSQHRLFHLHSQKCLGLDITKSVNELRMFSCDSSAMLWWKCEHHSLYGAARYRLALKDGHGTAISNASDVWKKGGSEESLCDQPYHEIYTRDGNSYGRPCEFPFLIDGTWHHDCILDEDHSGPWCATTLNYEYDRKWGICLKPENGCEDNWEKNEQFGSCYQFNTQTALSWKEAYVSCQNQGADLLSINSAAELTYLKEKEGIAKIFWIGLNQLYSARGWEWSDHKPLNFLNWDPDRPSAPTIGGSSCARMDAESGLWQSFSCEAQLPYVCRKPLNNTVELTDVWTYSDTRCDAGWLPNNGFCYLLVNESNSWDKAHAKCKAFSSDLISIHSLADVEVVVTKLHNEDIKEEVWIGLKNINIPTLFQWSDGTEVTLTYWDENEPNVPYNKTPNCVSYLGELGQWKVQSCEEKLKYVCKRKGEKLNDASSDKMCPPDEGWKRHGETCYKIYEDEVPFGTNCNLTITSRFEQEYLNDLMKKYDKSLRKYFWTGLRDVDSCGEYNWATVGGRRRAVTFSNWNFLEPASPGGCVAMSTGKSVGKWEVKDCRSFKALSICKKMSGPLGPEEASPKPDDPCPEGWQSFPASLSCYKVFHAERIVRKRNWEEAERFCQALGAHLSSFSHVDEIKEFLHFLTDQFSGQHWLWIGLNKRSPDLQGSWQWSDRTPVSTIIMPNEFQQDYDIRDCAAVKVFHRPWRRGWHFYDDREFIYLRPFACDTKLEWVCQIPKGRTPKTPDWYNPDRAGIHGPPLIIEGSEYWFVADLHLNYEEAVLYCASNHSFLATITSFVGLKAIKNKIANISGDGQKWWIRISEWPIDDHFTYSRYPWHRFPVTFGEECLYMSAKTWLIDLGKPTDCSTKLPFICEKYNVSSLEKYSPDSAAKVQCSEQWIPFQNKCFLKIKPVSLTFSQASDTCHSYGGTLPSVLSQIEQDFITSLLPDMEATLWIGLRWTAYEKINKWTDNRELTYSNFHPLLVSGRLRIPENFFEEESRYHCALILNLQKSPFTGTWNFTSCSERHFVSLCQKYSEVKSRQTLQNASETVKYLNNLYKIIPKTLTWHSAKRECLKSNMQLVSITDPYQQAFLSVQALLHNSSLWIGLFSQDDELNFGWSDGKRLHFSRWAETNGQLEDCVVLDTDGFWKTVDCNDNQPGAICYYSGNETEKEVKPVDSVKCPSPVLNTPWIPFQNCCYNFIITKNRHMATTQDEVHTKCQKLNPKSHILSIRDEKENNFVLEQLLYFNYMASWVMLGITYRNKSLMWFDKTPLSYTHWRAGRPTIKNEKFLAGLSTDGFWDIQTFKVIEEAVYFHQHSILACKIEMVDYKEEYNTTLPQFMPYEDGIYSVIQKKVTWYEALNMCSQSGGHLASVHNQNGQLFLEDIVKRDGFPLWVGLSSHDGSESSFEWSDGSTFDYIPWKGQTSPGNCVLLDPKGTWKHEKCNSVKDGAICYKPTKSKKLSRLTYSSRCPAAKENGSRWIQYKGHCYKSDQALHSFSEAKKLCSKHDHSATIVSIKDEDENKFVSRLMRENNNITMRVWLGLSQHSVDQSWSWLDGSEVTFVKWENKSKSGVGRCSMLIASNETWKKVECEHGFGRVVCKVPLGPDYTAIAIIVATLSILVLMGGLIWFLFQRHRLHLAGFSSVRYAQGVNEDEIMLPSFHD

- percent of DEC205+ DCs bound by FITC-PDI: > 50%
Substance: FITC-labeled HDM-derived PDI, recombinant (enzyme)
